Experimental data taken from PMC8624160.

B1: SITS-Thrombin27 5' (structured_DNA)
DNA: GTCCGTGGTAGGGCAGGTTGGGGTGAC
modifications: 5' NH2-(CH2)6 linker coupled to SITS
B2: SITS-Thrombin15 5' (structured_DNA)
DNA: GGTTGGTGTGGTTGG
modifications: 5' NH2-(CH2)6 linker coupled to SITS
B3: SITS-Thrombin29 5' (structured_DNA)
DNA: AGTCCGTGGTAGGGCAGGTTGGGGTGACT
modifications: 5' NH2-(CH2)6 linker coupled to SITS
B4: SITS-Thrombin15 3' (structured_DNA)
DNA: GGTTGGTGTGGTTGG
modifications: 3' (CH2)6-NH2 linker coupled to SITS
B5: SITS-Thrombin27 3' (structured_DNA)
DNA: GTCCGTGGTAGGGCAGGTTGGGGTGAC
modifications: 3' (CH2)6-NH2 linker coupled to SITS
B6: SITS-Thrombin29 3' (structured_DNA)
DNA: AGTCCGTGGTAGGGCAGGTTGGGGTGACT
modifications: 3' (CH2)6-NH2 linker coupled to SITS

The binders below were run against thrombin (UniProt P00734;P00734 328-363;364-622) (assay: fluorescence attenuation kinetics (kapp); Binding buffer, salt, pH and temperature not given in the material (PBS listed among reagents); ex/em 333/426 nm, constant SITS-aptamer, thrombin titrated, trip).

Q: B1 was tested. Which Kd did it give?
A: 1.59 µM

Q: For B2, which Kd is on record?
A: 10.8 µM

Q: Which Kd does the source give for B3 here?
A: 0.851 µM

Q: Which Kd does the source give for B4 here?
A: 4.98 µM

Q: With B5 as the binder, how does the Kd read?
A: 0.437 µM

Q: With B6 as the binder, how does the Kd read?
A: 0.18 µM
